Blank lines part the entries; values can stand above or below the binder they belong to.
Columns and labels:
4H3926-bN = molecular target: T1, 4H3926-bN; assay: two-hybrid library CCNG1; settings: mean of both orientations;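 note: natural log of median RNA to DNA barcode read ratio; higher means stronger binding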
T1 chain: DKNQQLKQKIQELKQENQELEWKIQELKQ

4H4073-bN = molecular target: T2, 4H4073-bN; assay: two-hybrid library CCNG1;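 note: natural log of median RNA to DNA barcode read ratio; higher means stronger binding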
T2 chain: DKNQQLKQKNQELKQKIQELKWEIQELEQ

4H457-bN = molecular target: T3, 4H457-bN; assay: two-hybrid library CCNG1;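 note: natural log of median RNA to DNA barcode read ratio; higher means stronger binding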
T3 chain: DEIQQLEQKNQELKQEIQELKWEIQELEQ

4H575-bN = molecular target: T4, 4H575-bN; assay: two-hybrid library CCNG1;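 note: natural log of median RNA to DNA barcode read ratio; higher means stronger binding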
T4 chain: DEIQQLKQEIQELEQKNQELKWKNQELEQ

4H591-bN = molecular target: T5, 4H591-bN; assay: two-hybrid library CCNG1;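 note: natural log of median RNA to DNA barcode read ratio; higher means stronger binding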
T5 chain: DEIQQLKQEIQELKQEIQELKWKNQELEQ

4H626-bN = molecular target: T6, 4H626-bN; assay: two-hybrid library CCNG1;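 note: natural log of median RNA to DNA barcode read ratio; higher means stronger binding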
T6 chain: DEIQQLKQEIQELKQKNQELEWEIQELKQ

4H683-bN = molecular target: T7, 4H683-bN; assay: two-hybrid library CCNG1
T7 chain: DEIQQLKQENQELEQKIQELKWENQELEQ

4H754-bN = molecular target: T8, 4H754-bN; assay: two-hybrid library CCNG1
T8 chain: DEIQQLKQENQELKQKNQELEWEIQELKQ

4H780-bN = molecular target: T9, 4H780-bN; assay: two-hybrid library CCNG1
T9 chain: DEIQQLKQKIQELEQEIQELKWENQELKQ

4H797-bN = molecular target: T10, 4H797-bN; assay: two-hybrid library CCNG1
T10 chain: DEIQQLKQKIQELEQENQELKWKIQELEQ

4H855-bN = molecular target: T11, 4H855-bN; assay: two-hybrid library CCNG1
T11 chain: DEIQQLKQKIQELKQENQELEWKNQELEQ

4H906-bN = molecular target: T12, 4H906-bN; assay: two-hybrid library CCNG1
T12 chain: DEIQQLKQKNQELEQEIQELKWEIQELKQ

4H918-bN = molecular target: T13, 4H918-bN; assay: two-hybrid library CCNG1
T13 chain: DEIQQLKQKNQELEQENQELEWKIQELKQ

4H953-bN = molecular target: T14, 4H953-bN; assay: two-hybrid library CCNG1
T14 chain: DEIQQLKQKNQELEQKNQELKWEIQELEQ

4H968-bN = molecular target: T15, 4H968-bN; assay: two-hybrid library CCNG1
T15 chain: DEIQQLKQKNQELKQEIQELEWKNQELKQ

O9-bH = molecular target: T16, O9-bH; assay: two-hybrid library CCNG1; settings: mean of both orientations
T16 chain: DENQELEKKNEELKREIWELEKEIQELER

APC3881-AA = molecular target: T17, APC3881-AA; assay: two-hybrid library CCmax
T17 chain: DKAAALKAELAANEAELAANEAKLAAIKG

APC4100-AA = molecular target: T18, APC4100-AA; assay: two-hybrid library CCmax; settings: mean of both orientations
T18 chain: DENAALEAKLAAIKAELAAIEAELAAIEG

APC4336-AA = molecular target: T19, APC4336-AA; assay: two-hybrid library CCmax; settings: mean of both orientations
T19 chain: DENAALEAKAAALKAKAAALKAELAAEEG

APC5009-AA = molecular target: T20, APC5009-AA; assay: two-hybrid library CCmax
T20 chain: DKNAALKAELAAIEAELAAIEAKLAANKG

APC542-AA = molecular target: T21, APC542-AA; assay: two-hybrid library CCmax; settings: mean of both orientations
T21 chain: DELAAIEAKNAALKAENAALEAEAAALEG

APC5531-AA = molecular target: T22, APC5531-AA; assay: two-hybrid library CCmax; settings: mean of both orientations
T22 chain: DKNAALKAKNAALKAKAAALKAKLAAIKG

APC6088-AA = molecular target: T23, APC6088-AA; assay: two-hybrid library CCmax; settings: mean of both orientations
T23 chain: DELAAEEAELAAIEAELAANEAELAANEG

APC7524-AA = molecular target: T24, APC7524-AA; assay: two-hybrid library CCmax; settings: mean of both orientations
T24 chain: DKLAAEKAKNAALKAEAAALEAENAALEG

APC8401-AA = molecular target: T25, APC8401-AA; assay: two-hybrid library CCmax; settings: mean of both orientations
T25 chain: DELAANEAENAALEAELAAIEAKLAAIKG

APC8516-AA = molecular target: T26, APC8516-AA; assay: two-hybrid library CCmax; settings: mean of both orientations
T26 chain: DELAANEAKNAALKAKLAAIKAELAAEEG

APC9141-AA = molecular target: T27, APC9141-AA; assay: two-hybrid library CCmax; settings: mean of both orientations
T27 chain: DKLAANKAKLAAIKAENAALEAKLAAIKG

APC9182-AA = molecular target: T28, APC9182-AA; assay: two-hybrid library CCmax; settings: mean of both orientations
T28 chain: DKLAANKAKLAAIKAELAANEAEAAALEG

APC9291-AA = molecular target: T29, APC9291-AA; assay: two-hybrid library CCmax; settings: mean of both orientations
T29 chain: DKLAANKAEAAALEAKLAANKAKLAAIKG

APC9806-AA = molecular target: T30, APC9806-AA; assay: two-hybrid library CCmax; settings: mean of both orientations
T30 chain: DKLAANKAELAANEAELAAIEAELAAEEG

interaction score (4H3926-bN): -0.623
interaction score (4H4073-bN): -1.26
interaction score (4H457-bN): 1.06
interaction score (4H575-bN): 0.813
interaction score (4H591-bN): 0.172
interaction score (4H626-bN): -0.388
interaction score (4H683-bN): -1.15
interaction score (4H754-bN): -0.867
interaction score (4H780-bN): -0.772
interaction score (4H797-bN): -0.358
interaction score (4H855-bN): -0.684
interaction score (4H906-bN): -0.529
interaction score (4H918-bN): -2.11
interaction score (4H953-bN): -0.788
interaction score (4H968-bN): -0.934
Binder: DKNQQLKQKIQELKQENQELEWKIQELKQ [4H3926-bN]

interaction score (O9-bH): -0.295
Binder: DENQELEKKNEELKREIWELEKEIQELER [O9-bH]

interaction score (APC3881-AA): -1.67
interaction score (APC4100-AA): -1.25
interaction score (APC4336-AA): -1.5
interaction score (APC5009-AA): -1.15
interaction score (APC542-AA): -1.63
interaction score (APC5531-AA): -1.92
interaction score (APC6088-AA): -1.78
interaction score (APC7524-AA): -1.49
interaction score (APC8401-AA): -1.61
interaction score (APC8516-AA): -1.39
interaction score (APC9141-AA): -1.38
interaction score (APC9182-AA): -1.63
interaction score (APC9291-AA): -2.12
interaction score (APC9806-AA): -1.72
Binder: DKAAALKAELAANEAELAANEAKLAAIKG [APC3881-AA]
